According to paper PMC3817407:

T1: ECF14_1324
T1 chain: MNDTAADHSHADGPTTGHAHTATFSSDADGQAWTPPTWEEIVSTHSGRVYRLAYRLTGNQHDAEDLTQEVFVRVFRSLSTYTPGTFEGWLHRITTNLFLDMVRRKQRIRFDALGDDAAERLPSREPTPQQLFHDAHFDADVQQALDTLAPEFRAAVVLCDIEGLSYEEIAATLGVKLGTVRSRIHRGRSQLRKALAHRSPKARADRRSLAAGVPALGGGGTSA

T2: ECF02_915
T2 chain: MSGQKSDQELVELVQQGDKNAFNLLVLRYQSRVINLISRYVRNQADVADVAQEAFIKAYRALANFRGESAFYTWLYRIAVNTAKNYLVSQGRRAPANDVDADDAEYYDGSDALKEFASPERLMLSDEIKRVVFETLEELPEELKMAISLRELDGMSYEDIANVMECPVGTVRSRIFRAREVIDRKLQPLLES

T3: ECF11_987
T3 chain: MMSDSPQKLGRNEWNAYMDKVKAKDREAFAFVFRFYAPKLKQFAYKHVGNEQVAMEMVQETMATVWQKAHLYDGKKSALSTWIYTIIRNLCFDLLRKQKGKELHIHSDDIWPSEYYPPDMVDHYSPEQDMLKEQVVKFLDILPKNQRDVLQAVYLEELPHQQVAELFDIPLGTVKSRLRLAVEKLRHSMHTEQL

T4: ECF15_436
T4 chain: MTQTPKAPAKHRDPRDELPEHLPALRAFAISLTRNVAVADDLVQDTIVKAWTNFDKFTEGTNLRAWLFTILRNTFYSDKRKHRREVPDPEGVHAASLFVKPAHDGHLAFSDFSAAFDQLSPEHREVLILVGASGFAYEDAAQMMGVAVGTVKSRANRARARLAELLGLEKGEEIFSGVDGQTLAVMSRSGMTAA

T5: ECF33_423
T5 chain: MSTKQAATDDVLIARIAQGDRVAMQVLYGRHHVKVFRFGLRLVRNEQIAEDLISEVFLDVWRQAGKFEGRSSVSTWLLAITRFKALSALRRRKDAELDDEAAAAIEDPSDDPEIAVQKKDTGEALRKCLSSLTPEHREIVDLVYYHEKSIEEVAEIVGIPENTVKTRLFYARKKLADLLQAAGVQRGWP

T6: ECF12_807
T6 chain: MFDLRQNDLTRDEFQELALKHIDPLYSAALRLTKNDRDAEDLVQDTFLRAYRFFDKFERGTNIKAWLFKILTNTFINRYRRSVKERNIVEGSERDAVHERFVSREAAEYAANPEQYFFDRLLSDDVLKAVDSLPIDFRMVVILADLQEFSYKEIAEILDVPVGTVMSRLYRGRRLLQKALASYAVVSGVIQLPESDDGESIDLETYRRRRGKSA

B1: AS35_3582 (protein)
chain: MNPQKHSASVAEEQMLAHFRAHAPQQPAPALDQAILAAARRQAAHVEPARSWWRRWLEASRRPRWQAAFASLLGVALVLGLVSHNVLDDAERQARPEVAFSDVPLRDGVAGAAAAKRAMRAPAAPAPLSGEMSEPPALLASYASSGEAPQLMAEAAPPAPAALADRPPAQAAQQAKVQAALAGDFVAQARGKAVAVKPEVLDEALGAVLALREQGKTEQAATQLAELQKRFPGENLVERLERLATIAASARKRP
B2: AS38_1322 (protein)
chain: MSDGNDARPDARDGHDPGSDARDGHDPGSHARDGHDPGAGPFDGHGPGSDAGDGDDAGPDARDGHGAPAGPAGREQRKHPHDTHDMHDTHDTHAGKGTVNHGPAAQGPDAPGADGPATDEAALRAMMQRAVREMEPSDGTLEHLRRAVPARRARKRQALVGAAAAALFLGTAVPALVHVSNATGAGADPSVAGNASQAQGGASQGKDPAGGQSGVAGTGDTPEDRDKADPKETPGGKEPGAATGAPPSGVPSASSPADVPACAPGSLGPAVASSAEPDSTGVVYGSFRVTNVSSDGCTVTGPGTVVTASLGAAEATRIGTARHAAGDAAAGLPDPSLETASLALAPGAAYEVQFAWVPSETCPTTGGTTGGGSGGPSPDPSPTADTTAAGGTSAGGGEAGPTTQLITEDGPAEGSVSVTYTPEGGSGSATATVSNACAGTVYWTGLLADSGSGA
B3: AS37_2513 (protein)
chain: MSSAPATKEEVDFALKVRRALDERAASLPDATTDRLAAARRAALARKKPDAAIVLVPALAGSAGTLELRPPGEPRKSLARRLARAWPLALLLAGLIGIAYWEDMQRTAELADIDAAMLSDNLPLTAYLDHGFNAYLSHTH

Molecular target: T1, ECF14_1324

Row | Binder | fold repression
1 | B1 | 13.1
2 | B2 | 8.93
3 | B3 | 13.8

Molecular target: T2, ECF02_915

Row | Binder | fold repression
4 | B1 | 3.95
5 | B2 | 3.62
6 | B3 | 2.67

Molecular target: T3, ECF11_987

Row | Binder | fold repression
7 | B1 | 9.63
8 | B2 | 10.4
9 | B3 | 9.25

Molecular target: T4, ECF15_436

Row | Binder | fold repression
10 | B1 | 7.43
11 | B2 | 5.64
12 | B3 | 5.3

Molecular target: T5, ECF33_423

Row | Binder | fold repression
13 | B1 | 3.76
14 | B2 | 3.68
15 | B3 | 3.3

Molecular target: T6, ECF12_807

Row | Binder | fold repression
16 | B1 | 10.1
17 | B2 | 5.77
18 | B3 | 9.33
